Tests used:
[1] = molecular target: hMN-14×734 (Fab×Fab) bi-specific antibody; test: SE-HPLC shift with WI2 after incubation of radioiodinated bsAb in human serum at 37° C.
[2] = molecular target: carcinoembryonic antigen (CEA) (UniProt P06731); test: analytical size exclusion HPLC, radioiodinated bsAb with 10-20× molar excess of CEA
[3] = molecular target: Ac-Lys(DTPA)-Tyr-Lys(DTPA)-Lys(Tscg-Cys)-NH2 (IMP 192); test: calculated from biodistribution in GW-39 tumor-bearing nude mice, 1 h after peptide, assuming one peptide bound to one bsAb
[4] = molecular target: Ac-Lys(DTPA)-Tyr-Lys(DTPA)-Lys(Tscg-Cys)-NH2 (IMP 192); test: calculated from biodistribution in GW-39 tumor-bearing nude mice, 3 h after peptide, assuming one peptide bound to one bsAb
[5] = molecular target: Ac-Lys(DTPA)-Tyr-Lys(DTPA)-Lys(Tscg-Cys)-NH2 (IMP 192); test: calculated from biodistribution in GW-39 tumor-bearing nude mice, 24 h after peptide, assuming one peptide bound to one bsAb
[6] = molecular target: Ac-Lys(DTPA)-Tyr-Lys(DTPA)-Lys(Tscg-Cys)-NH2 (IMP 192); test: calculated from biodistribution in GW-39 tumor-bearing nude mice, 30 min after peptide, assuming one peptide bound to one bsAb
[7] = molecular target: carcinoembryonic antigen (CEA) (UniProt P06731); test: SE-HPLC, 125I-labeled bsMAb with an excess of CEA
[8] = molecular target: peptide containing a single HSG substituent and a thiol; test: BIAcore, CM-5 chip derivatised with the mono HSG peptide
[9] = molecular target: DOTA-Phe-Lys(HSG)-D-Tyr-Lys(HSG)-NH2 (IMP 241); test: in vivo pretargeting, GW-39 tumor-bearing nude mice, 3 h after 111In-IMP-241
[10] = molecular target: carcinoembryonic antigen (CEA) (UniProt P06731); test: immunoreactivity test of 99mTc-hMN-14 Fab′, method and antigen not stated

Chain of carcinoembryonic antigen (CEA) (P06731 35-685 limits assumed): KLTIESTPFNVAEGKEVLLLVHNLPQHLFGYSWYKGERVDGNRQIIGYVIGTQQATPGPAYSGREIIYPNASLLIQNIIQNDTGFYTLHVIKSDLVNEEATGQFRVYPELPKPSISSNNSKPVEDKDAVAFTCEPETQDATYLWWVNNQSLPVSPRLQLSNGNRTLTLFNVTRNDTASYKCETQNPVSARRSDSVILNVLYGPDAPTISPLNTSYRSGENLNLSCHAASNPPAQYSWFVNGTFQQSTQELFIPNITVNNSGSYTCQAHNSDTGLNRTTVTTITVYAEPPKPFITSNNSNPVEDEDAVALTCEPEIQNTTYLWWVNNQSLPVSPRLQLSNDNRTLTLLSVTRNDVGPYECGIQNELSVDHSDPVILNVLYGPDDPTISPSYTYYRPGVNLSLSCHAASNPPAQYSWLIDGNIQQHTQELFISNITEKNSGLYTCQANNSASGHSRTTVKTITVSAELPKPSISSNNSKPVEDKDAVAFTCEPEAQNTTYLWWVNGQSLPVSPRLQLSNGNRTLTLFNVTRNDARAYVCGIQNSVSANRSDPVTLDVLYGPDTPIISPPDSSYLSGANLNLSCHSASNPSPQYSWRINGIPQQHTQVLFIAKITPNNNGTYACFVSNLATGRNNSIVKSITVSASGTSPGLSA

WI2 (rat anti-MN-14 idiotypic antibody)
% loss of binding capacity to WI2 after 48 h in serum [1]: 3 to 5%

hMN-14×734 (Fab×Fab) bi-specific antibody (bispecific antibody)
percent of bsAb bound [2]: 90% | % saturation on hMN-14 × 734 (available DTPA binding sites on the tumor bound bsAb filled with 99m-Tc-IMP-192) [3]: 25.8% | % saturation on hMN-14 × 734 (available DTPA binding sites on the tumor bound bsAb filled with 99m-Tc-IMP-192) [4]: 25% | % saturation on hMN-14 × 734 (available DTPA binding sites on the tumor bound bsAb filled with 99m-Tc-IMP-192) [5]: 28% | % saturation on hMN-14 × 734 (available DTPA binding sites on the tumor bound bsAb filled with 99m-Tc-IMP-192) [6]: 25.4%

hMN-14×m679 F(ab′)2 bsMAb (bispecific antibody)
percent of radiolabeled product shifting to a higher molecular weight [7]: > 90% | Kd [8]: 1.5 nM | ratio of the % ID/g of the peptide compared to the bsMAb in the tumor [9]: 3.9

B1: 99mTc-hMN-14 Fab′ (humanized MN-14 Fab′-SH) (Fab, INN chains, looked up, V domains shown)
VH: EVQLVESGGGVVQPGRSLRLSCSASGFDFTTYWMSWVRQAPGKGLEWIGEIHPDSSTINYAPSLKDRFTISRDNAKNTLFLQMDSLRPEDTGVYFCASLYFGFPWFAYWGQGTPVTVSS
VL: DIQLTQSPSSLSASVGDRVTITCKASQDVGTSVAWYQQKPGKAPKLLIYWTSTRHTGVPSRFSGSGSGTDFTFTISSLQPEDIATYYCQQYSLYRSFGQGTKVEIK
modifications: Fab' 99mTc label
immunoreactive fraction [10]: 92%

— patent US20060034759A1
